According to the DeepSol protein solubility set:

Assay: soluble on expression in E. coli; label from the status in PepcDB or PDB records

Row | Sequence | soluble on expression in E. coli
1 | MSGKTKRLMVMAGGTGGHVFPGLAVAHHLMAQGWQVRWLGTADRMEASLVPQHGIEIDFIKISGLRGKGLMAQLTAPIRIYRAVRQAQKIMRDYQPNVVLGMGGYVSGPGGLAAWLCGVPVVLHEQNGIAGLTNRWLARIAKKVLQAFPGAFPNADVVGNPVRTDVLALPLPAVRLSGREGPIRVLVIGGSQGARILNQTLPLVAASLGEQITLWHQVGKGALPEVSQAYQQAGQAGHLVVEFIDDMAAAYAWADVVVCRSGALTVSEVAAAGLPAIFVPFQHKDRQQYWNALPLEKAGAAKIIEQPQFTATSVSSLLASWDRATLLSMAERARSVAIPDATERVAAEVVAASKSA | not soluble
2 | MSGLIPAHGLSFRVDASTLTGQSSLLRASLGLDDVHLQVSAITEVKSVFVADAFDRGLVTVTADKEIAIWFPPNSATEQELFVRTLSAAMNGDGPIPQPVPHLDFVAVDVETTNSDWGSICQIGAAKVRDGHVVETKEWLCTPPGDLNSFDEANIAIHGITADMVATAPSFAECYDQFADFAGDLPLAAHNAQFDMTAFLRATQAADIRLRTTNFGCSLAAARAAHLPIANHKLPTVSQHLHVELRNHHNACADAEACAGILIALTQRLNTEITDFTSAFNMLGFHTGQLSDARVYPVLKVRGASSTPASPDSAAPAIQTPPAEKPRKATKAARAPWSKVATPETIPDPNPDADPQGRLFGQSVTLSGDFAPYDKGELWAGIANQGGIIGKNVTKKTTILVCGPWDKPTSKQKRAEELRAKGQEIDLWTQEDLFAQLGLNPEDEQPPF | not soluble
3 | MSGRYNMNIILGATGQVGSMLVDNLLGKGQPVRAVVRDGLKAQGLKNKGVEVKIADYLDVEALKKAFQGGSSVFLLTPENPESENFINEIQRIMSNYREAVLSSGISKIVGLSSMGAQHKSGTGNLMASYMLEHAFSDLEIEQVFVRPAYYFSNWLGYLELVREYGILPTFFPPELELPMIAPPDVAGFLSDVMTCKTQQERIYEISGPHDYSSSDIAKIFGDVLNKNVTLQQVLPEEWENTLIQAGFSKDGTRNLMLMTKAVIDGKTKNETTNRLRFSTNFKNYLQSVILNMS | not soluble
4 | MSGSDDDATQISREDEELAYEIYFWIVRCICEKGVVKISELRKIYQSTVVKDRSVQFRPLPGVLKAVNENLLHWQGWNAVIQDDRLTYVNVNGDAPNEVRASETERTLGLLKNVLMYVFVATKPQSKHPGVAQEDLMSYMEASMSTHSDRKLSLDHMEFLKKLIAPNARSEFIKKGYLAFTKSVNENDEEVFRYEWGPAARQTVDPLALVQTFQQLTGMKPEMLKEQTERANELKAEQVAAVTRGGVLRTRGQ | not soluble
5 | MSHAVARLRAERLARSNKPFIARGSRAERCPDCRVIATHCLCAWKPRVQADAGVCLLMHDTEPLKPTNTGWLIADLIEDTWAFGWLRTAVDERLLALLDDPRWQPYIVFPGEFVAQERVVSEVVREPGKRPLFILLDATWTEARKMFRKSPYLDRFPVLSLQAEQMSRYRLRRSKRDDHFCTAEVAAMCLDLAGDGQASQALDAYLDVFSLHYLSGKRRLPLDEQDDTHQRLHTFLLEHHHHHH | soluble
6 | MSHINLYSLPTDHKNMIRCRYCEKIYKIDNGSSGFIRHLRCKHPNVLYQMGAISNGKEYNLITKQETLSIDTNNEINLRDDDDFMMMKEFSSNQILVNFLSQLDLPTNDVNRVLGKRHRISPTPTINSSVTPNEEHEPDLKMFNSGDTLQNFLIDIDNHIRQKNQESQEAIGTGEESTSASALDMPSSQKESREPSPNSSMLDETNGGTETGDSSPTPFNPARPFGCVICPCSFPRVKDLTIHVTSVHRTRFRCNTCLAEFVQPQHLEHHYSISHAGTSTGTVVNT | not soluble
7 | MSHQEQQEQEIEALEAIYSEEEIHVASRDYPNIELSIQLKSNQYEDPTDDDFDVELGIEFTENYPDEIPIITLNGIEDAFTAERIAESIDKLRSVAEENLGMVMVFAIVSALQDEIGELVDVKKRAKEEKVEIEKEKKEAESRKKFEGTVVTPDTFRAWKDRFDEERKAEIDAAEKERLASLAGRLTGRQLFLRDATLNLSDVTLIGAQDEVEIDESLFDNEELEGLEMDSEEEEEDDEE | soluble
8 | MSIIEDNKISFVIPTINEEKTIGSVIDGIHENFPNAEIILVDTNSTDKTKEIAKSKGATVIEEPRKGYGRAYQTGIPAAKGDIIVCMDGDGTYPTDIVKPLIEILILDKVDFISCDRITFRTSTNYTTLHYVGNMVLNLTIRILFKVRMVDSQSGMWIFRSELYKKMKNLGYGMSFSQNIKIEAVRHGVFIEIPIRYGVRITKPKLKTWHDGFHNLFALFIKRVSELEHHHHHH | soluble
9 | MSIKIDLNKCVGCQKCINICPGSLIDKNNDGKAYIKYPKDCWGCTACLKECKFKAIKYFLGADIGGNGSYMYVSEKGEELEWHMINEDGKEKIITTSRKESNKYLEHHHHHH | not soluble
10 | MSIKIGLLGFGTVASGMPFLLKENKDKITAASGTKLEIAKVLVKDDDEKKRLLAAGNDFNFVTNVDDILSDDDIAIVVELMGRIEPAKTFITKALEAGKHVVSANKDLIATHGKELIRLAQDKGVAFYYEAAVAGGIPILRTLANSLTSDKVTRILGVLNGTSNFMMTKMVDEGWTYEAALKKAQELGYAESDPTNDVEGIDAAYKAVILSQFGFGMTIDFDQVVHQGISSITPDDVAMAQQLGYVIKLVGSVEETPSGIFAEVSPTFLPKSHPLASVNDVMNAVFVESIGIGESMYYGPGAGQKPTATSVVADVIRIARRIKDGNVGKCFNEFIRETKIAHPDDVKSHYYFAINTADEKGKMLRLAEIFNSEDISFEQVLQQKANGEQARVVIITHSLSKSQLVNVTEKLQAVADFKLLNTFKVLGE | not soluble
11 | MSIRDERKQQSRQALLDAALQLSTGGRSFSSISLREVAREVGLVPTAFYRHFQDMDALGQELVDQVALHIKSLIHQLGQSYLQQVSTHPDSSIELFFQAINHSPLEWQFMIAERWGGSAAVRQAIAREIEDLIEDLATDLRKLPMFEHIQDSQDLKVLSTILINLSFTWAMTWLSLASQYQDAALSQHQQQFVENANTQIRLMFRGVANWG | not soluble
12 | MSISFEKLRITLKSVGVPVTRDKAEKGTDYPYIVYSNVSQGKKMASSKVHRRMPYYQISFYTTGTEKDLIALENALEEAGIPYTDFVGIQGDENDDTVTNFYTYVRCIEDGK | soluble
13 | MSISGIGSYAASMLTPSRGSAGTSASAAATAADNTPATKSGSGGVQKTDFTQMTHKQLFDWVNSKIASGEMSFDESSTFISMTVSMPVDGSSMAPDDKQPVNFMQSVRDGMERALQTNDSDLFARLQTALHTMQRSQGEVRGVNMTV | not soluble
14 | MSKDDPINSIFFEHQEAALCAQHALNMLLQDALYKWQDLRDLAIQMDKMEQQILGNANPTPGRSENMNESGYFSIQVLEKALETFSLKLTNIENPAMVDYKNNPLTARAYICNLREHWFVLRKFGNQWFELNSVNRGPKLLSDTYVSMFLHQVSSEGYSIFVVQGVLPRSDADDLISLCPVVPPKVTPKKEQKLEKVMTKFFNTVGKRLGGGSGAPPDSQEEKDLAIAFAMSMETKDGSEVSRSSAEIDEENLRKAIELSQAPGPSEPAEIPLLTRSRSSTPPGASEPFSNAEQQRRDRQKFLERFEKKKEERNDEK | not soluble
15 | MSKGHSLQDPYLNTLRKERVPVSIYLVNGIKLQGQIESFDQFVILLKNTVSQMVYKHAISTVVPSRPVRLPSGDQPAEPGNA | soluble
16 | MSKILDVQGIVKRATELNDFGHLLEHVPYAKFIGMKVERFGDELIFKLPAKDDNIGNPILPAIHGGVIAGFMEMSAIVQLMVFMQTAKVPKVVDFSIDYLRAGLHKDSFAECRITRQGRRVANVSINCWQTNRKQLIATARAHFLIDLEHHHHHH | not soluble
17 | MSKILGDGHVRKTVDLPDSALRLNYEKKYYEPENGDHLIFSAQLQNGRYSALTAIKPTDLLQVYGSLSYLDEQLKFGHVSIHGRTAKVFVPFSTRTTNGACWYGQGAYIDKPYLIYIFRQEEAHGCKFVAWAIYDDTRKTTSVPPTPTDIQNTSHMKKLGPPTAVQRQSDHQSVEFVQAQSGVIYDISDNYVISVTSPTCQNVEFAPTLYESWMRPGRFITFDGRRVSDVKTSKLMGSNPEDMGSIYPIRKLTPLTITISAIMNKVSHGKAGWAWNDHVGRIYIPWNSTDRYMQASKPLPFTPVHLEIAYNGKHDDIPWVACGSSLVEEQEYDQIVDENSRMLKTEDNWKIQSVVDGPENPSIFLAKFDEKGLKRTAFAKVIDLNSGNIPPTGTLVRITYYAQERHGRHAMRCVLVTTMEKVERFPKVHSIINGSGEKHFPMMYEQPIPKKQVIPPTPVQRVQAAPPPAKNCWNLKNLGSPAAQPSVQDFPTVTGDEDDNIFVEETNTALPPPGFVPPGLVAPPGLPPPPGLPAVPLSTDLAYDFKMTSSIPMTNGLGHLRLGSVWSGTPVEAKQEEPLHYFQQQDNFLGSSFGPISSTFSADNFFTELTASISQPSTSSVVNSGPISDLRNTQSEASSPGLKSDGNEPVEETNCWSSLEAATNGNNPFNSSFSYGFPHMDLPIYQKMMPNANDILKPMPLVEEELKPATSATHSEADSCTCGTEQLIWDLWQNPHFIAAFAASDPETFKRVDAKRKLFSLSNHR | not soluble
18 | MSKIVEVSKSPYAKLKTIPVGSVRVNGFMGKYFETLVNVTLPTQYDLLENTGRLDNFRIAAGKMEGSYKTLFPFDDTDVYKWAETVSFALANRKLPELEKILDSVIEEVKAAQDEDGYLGTYLSGDRKKERWTNLAWNHELYNAGHLIQAAVAHRRVTGKNTLFEVAKRFADHIYNTFGPEKKEGAPGHPEVEMALVELYRETGDRKYLDLARYFIYARGKGLASVPRNPGPEYFIDHKPFVELEEITGHAVRALYLCSGATDLYLETGDEKIWQALNRLWENFVTKKMYITGGAGSRHDWESFGEEYELPNRRSYAESCASIANFMWNFRMLLATGDGKFADVMEQVLYNGLLSGISLDGKHYFYFNPLEDYGRTRRQKWFDCACCPPNLARFIVSFPGYMYTTSDDGVQVHLYEKSTARLDFKGSVVEIEQETDYPWSGEVAFTIKTDIEEPFSIYLRLPSWADDFVLRVDGKAVIAKPQNGYVKLSQSWKGKHTVELSLPMKAVFIEAHPFVRDDLGKAAVKRGPVVYCIEQADNPDFHVWTLVLNSESLKEEKGKILDREAVFLKGTGRALDISEWEGKLYRKLSEVREKTVEFTLIPYHMWANREPGAMAVWLKR | soluble
19 | MSKKLTTAAGCPVAHNQNVQTAGKRGPQLLQDVWFLEKLAHFDREVIPERRMHAKGSGAYGTFTVTHDITKYTKAKIFSDIGKKTDMFARFSTVAGERGAADAERDIRGFSLKFYTEEGNWDLAGNNTPVFFLRDPLKFPDLNHAVKRDPRTNMRSAKNNWDFWTSLPEALHQVTIVMSDRGIPATYRHMHGFGSHTFSFINSDNERYWVKFHFVSQQGIKNLSDAEAGELVGNDRESHQRDLLDSIDNQDFPKWTLKVQIMPEADAATVPYNPFDLTKVWPHKDYPLIEVGEFELNRNPQNYFAEVEQAAFNPANVVPGISFSPDKMLQGRLFAYGDAQRYRLGVNHQHIPVNAPRCPVHSYHRDGAMRVDGNFGSTLGYEPNDQGQWAEQPDFSEPPLNLDGAAAHWDHREDEDYFSQPGDLFGLMTAEKQAILFDNTARNLNGVPKEIQLRHVTHCYKADPAYGEGIGKLLGFDISEYNS | soluble
20 | MSKLCKEFSLSATVKNMSRFVDGEEYYTDTEERFNIPWRMFIRKDSGYFDLGLVCEKDSWENREWSIETDYKMKFVSHNGDSLTDSEHFTFENSNKSDVCLMKPWDLLESDYVVDDSIVVEAYVKIIKMTDTPCDEDENIETFLLSNTVKNISSIEEGDDYYTEIATRHNVPWRMQIKRNNGFFELYLRCEKEEQPEWGWKIELDYDLRLVSLNGQSLSLTDSGSFSKPFCEGFEKFMRWNIMEENYIVKDSIIIEARGKITKMIGCDDDSSSDDGEDESSKSHSESDTSSDNLEDEFSECVINVGGQN | not soluble
